Where only a bound is given, the exact number is not on record here.

Test [1] has as its target integrin αvβ3 (vitronectin receptor), purified and immobilized on microtiter wells (UniProt P06756). Put plainly: solid-phase competition: peptide against 1 nM 125I-fibrinogen on immobilized αvβ3; mean of duplicates ± SD.
Test [2] addresses integrin αIIbβ3, purified and immobilized on microtiter wells (UniProt P08514). Put plainly: solid-phase competition: peptide against 1 nM 125I-fibrinogen on immobilized αIIbβ3; mean of duplicates ± SD.
The target in test [3] is integrin αvβ3 (vitronectin receptor), purified and immobilized on microtiter wells (UniProt P06756). Put plainly: solid-phase receptor binding assay, 125I-MMP-2 on immobilized αvβ3.
The target in test [4] is integrin αIIbβ3, purified and immobilized on microtiter wells (UniProt P08514). Description: solid-phase receptor binding assay, 125I-MMP-2 on immobilized αIIbβ3.
For test [5], the target named is T1, integrin αIIbβ3, purified and immobilized on microtiter wells (UniProt P08514 32-1039; P05106 27-788).
T1 construct: Purified integrin coated at 50 ng per well; also called α11bβ3
Put plainly: solid-phase competition: peptide against vitronectin (VN) on immobilized αIIbβ3; individual assay.

The target of test [6] is T2, integrin αvβ3 (vitronectin receptor), purified and immobilized on microtiter wells (UniProt P06756 31-1048; P05106 27-788).
T2 construct: Purified integrin coated at 50 ng per well; also called αvβ3 receptor; vitronectin receptor (αvβ3)
Description: solid-phase competition: peptide against fibrinogen (FG) on immobilized αvβ3; individual assay.

In test [7] the target is T2, integrin αvβ3 (vitronectin receptor), …. Description: solid-phase competition: peptide against vitronectin (VN) on immobilized αvβ3; individual assay.
For test [8], the target named is T1, integrin αIIbβ3, purified and …. Put plainly: solid-phase competition: peptide against fibrinogen (FG) on immobilized αIIbβ3; individual assay.

In the case of peptide 62181, cyclo(GrGDFV), the results for the 50% inhibitory concentration (IC50) in test [1] and in test [2] were 1.96 µM and 15 µM, respectively.

Turning to “MMP-2 (matrix metalloproteinase-2) as used in the solid-phase receptor binding assays (enzyme)”, the results for the bound cpm in test [3] and in test [4] were 300 cpm and 10 CPM, respectively.

For peptide 62184, cyclo(RGDfV), the IC50 in test [1] was determined as 0.05 µM; in test [2], 0.525 µM.

As for peptide 62179, cyclo(GRGDfL), the IC50 in test [1] is 0.395 µM; in test [2], 0.055 µM.

For peptide 62187, cyclo(RGDFv), the IC50 in test [1] came to 0.05 µM; in test [2], 0.26 µM.

Consider peptide 62186, cyclo(RaDFV), for which the IC50 came to 57.5 µM in test [1] and 100 µM in test [2].

On to peptide 62185, cyclo(RADfV), for which the IC50 was 0.885 µM in test [1] and 100 µM in test [2].

Consider peptide 62175, cyclo(ARGDfL), for which the IC50 in test [1] is 1.05 µM; in test [2], 0.63 µM.

B1: peptide 62502, TDVNGDGRHDL (linear, αIIb-derived amino acid residues 296-306) (peptide)
peptide: TDVNGDGRHDL
notes: Linear synthetic peptide
B1: the IC50 in test [5] was 5 µM; in test [6], over 100 µM; in test [7], over 100 µM; in test [8], 90 µM.

B2: peptide 62880, YTAECKPQVTRGDVF (linear, VN-derived amino acid residues 35-49) (peptide)
peptide: YTAECKPQVTRGDVF
notes: Linear synthetic peptide
B2: the IC50 is 0.98 µM in test [5], under 0.1 µM in test [6], 0.5 µM in test [7] and 4.2 µM in test [8].

B3: peptide 62411, TRQVVCDLGNPM (linear, αv-derived amino acid residues 676-687) (peptide)
peptide: TRQVVCDLGNPM
notes: Linear synthetic peptide
B3: the IC50 in test [5], in test [6] and in test [7] was over 100 µM throughout.

B4: peptide 62503, GVVRNNEALARLS (linear, αv-derived amino acid residues 655-667) (peptide)
peptide: GVVRNNEALARLS
notes: Linear synthetic peptide
Regarding B4, the IC50 in test [5], in test [6] and in test [7] was over 100 µM in each case.

Broadly, the IC50 is the concentration that inhibits the measured activity by half. Low readings indicate higher potency, high ones lower potency.
